What all share (assay): cell-based or functional assay
Assay [1] addresses N-type calcium channel formed by human brain α1B subunit together with rabbit β3 subunit, expressed in Xenopus oocytes (human; rabbit) (UniProt Q00975).
In assay [2] the target is rat brain α1G subunit expressed from cRNA in Xenopus oocytes (rat) (UniProt O54898).
Assay [3] deals with rabbit cardiac α1C subunit, modified cDNA ΔN60 truncated by 60 amino acids at the N-terminal end, expressed in Xenopus oocytes (rabbit) (UniProt P15381).
Sequence of UniProt P15381 (P15381 61-2171 limits assumed, stated change not applied): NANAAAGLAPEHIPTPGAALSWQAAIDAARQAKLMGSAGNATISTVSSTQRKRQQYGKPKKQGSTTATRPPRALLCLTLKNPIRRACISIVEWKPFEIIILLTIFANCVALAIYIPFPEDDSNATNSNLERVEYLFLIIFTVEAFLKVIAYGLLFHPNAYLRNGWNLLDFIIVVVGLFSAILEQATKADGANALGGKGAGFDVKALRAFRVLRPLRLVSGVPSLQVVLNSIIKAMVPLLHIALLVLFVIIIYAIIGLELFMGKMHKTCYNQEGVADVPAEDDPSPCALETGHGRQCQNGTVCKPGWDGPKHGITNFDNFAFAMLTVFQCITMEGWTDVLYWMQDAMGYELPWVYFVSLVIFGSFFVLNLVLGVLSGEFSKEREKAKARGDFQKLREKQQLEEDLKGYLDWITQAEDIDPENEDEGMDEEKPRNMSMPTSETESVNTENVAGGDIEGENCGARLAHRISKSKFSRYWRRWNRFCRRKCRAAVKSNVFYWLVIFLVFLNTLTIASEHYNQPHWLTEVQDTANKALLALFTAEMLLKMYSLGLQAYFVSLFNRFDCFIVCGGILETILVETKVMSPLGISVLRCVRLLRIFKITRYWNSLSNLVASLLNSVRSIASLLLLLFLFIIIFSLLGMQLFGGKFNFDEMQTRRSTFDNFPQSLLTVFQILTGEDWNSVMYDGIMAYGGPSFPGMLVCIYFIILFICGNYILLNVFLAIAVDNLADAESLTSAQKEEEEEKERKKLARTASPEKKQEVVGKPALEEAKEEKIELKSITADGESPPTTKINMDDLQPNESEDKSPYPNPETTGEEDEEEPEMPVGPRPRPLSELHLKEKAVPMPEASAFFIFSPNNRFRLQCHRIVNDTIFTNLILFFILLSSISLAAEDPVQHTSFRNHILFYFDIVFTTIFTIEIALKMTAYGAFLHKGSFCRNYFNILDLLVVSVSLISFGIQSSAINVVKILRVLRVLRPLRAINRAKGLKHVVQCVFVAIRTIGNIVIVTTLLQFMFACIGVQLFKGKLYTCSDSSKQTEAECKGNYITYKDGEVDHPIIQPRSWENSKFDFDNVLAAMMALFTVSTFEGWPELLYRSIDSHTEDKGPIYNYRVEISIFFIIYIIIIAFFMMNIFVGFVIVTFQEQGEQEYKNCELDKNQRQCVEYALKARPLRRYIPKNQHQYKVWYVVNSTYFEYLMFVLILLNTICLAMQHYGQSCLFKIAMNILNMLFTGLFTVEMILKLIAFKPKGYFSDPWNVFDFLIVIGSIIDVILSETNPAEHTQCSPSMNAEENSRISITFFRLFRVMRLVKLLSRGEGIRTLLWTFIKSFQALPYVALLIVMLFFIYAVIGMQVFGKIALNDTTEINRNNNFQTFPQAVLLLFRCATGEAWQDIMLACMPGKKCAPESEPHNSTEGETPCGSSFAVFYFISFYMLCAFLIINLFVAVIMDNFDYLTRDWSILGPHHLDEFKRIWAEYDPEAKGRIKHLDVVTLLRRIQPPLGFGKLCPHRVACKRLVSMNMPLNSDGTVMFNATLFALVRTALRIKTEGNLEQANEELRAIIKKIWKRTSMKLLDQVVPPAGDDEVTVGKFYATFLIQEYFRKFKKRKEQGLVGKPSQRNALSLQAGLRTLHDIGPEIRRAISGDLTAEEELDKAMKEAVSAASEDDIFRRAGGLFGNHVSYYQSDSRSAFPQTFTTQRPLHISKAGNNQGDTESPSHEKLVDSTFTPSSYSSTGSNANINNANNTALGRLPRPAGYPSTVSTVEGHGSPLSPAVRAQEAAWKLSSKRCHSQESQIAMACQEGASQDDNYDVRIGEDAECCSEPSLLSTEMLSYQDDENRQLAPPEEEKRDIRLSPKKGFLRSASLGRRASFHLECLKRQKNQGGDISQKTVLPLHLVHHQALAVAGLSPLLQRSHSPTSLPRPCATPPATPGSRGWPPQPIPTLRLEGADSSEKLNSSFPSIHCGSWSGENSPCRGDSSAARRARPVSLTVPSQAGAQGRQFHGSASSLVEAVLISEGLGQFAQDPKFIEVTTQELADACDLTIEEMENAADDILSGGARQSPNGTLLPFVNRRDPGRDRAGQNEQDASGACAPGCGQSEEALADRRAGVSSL

We go through two substances from patent US20030044911A1.

Sequence of UniProt Q00975 (Q00975 whole entry, chain 1 of 2): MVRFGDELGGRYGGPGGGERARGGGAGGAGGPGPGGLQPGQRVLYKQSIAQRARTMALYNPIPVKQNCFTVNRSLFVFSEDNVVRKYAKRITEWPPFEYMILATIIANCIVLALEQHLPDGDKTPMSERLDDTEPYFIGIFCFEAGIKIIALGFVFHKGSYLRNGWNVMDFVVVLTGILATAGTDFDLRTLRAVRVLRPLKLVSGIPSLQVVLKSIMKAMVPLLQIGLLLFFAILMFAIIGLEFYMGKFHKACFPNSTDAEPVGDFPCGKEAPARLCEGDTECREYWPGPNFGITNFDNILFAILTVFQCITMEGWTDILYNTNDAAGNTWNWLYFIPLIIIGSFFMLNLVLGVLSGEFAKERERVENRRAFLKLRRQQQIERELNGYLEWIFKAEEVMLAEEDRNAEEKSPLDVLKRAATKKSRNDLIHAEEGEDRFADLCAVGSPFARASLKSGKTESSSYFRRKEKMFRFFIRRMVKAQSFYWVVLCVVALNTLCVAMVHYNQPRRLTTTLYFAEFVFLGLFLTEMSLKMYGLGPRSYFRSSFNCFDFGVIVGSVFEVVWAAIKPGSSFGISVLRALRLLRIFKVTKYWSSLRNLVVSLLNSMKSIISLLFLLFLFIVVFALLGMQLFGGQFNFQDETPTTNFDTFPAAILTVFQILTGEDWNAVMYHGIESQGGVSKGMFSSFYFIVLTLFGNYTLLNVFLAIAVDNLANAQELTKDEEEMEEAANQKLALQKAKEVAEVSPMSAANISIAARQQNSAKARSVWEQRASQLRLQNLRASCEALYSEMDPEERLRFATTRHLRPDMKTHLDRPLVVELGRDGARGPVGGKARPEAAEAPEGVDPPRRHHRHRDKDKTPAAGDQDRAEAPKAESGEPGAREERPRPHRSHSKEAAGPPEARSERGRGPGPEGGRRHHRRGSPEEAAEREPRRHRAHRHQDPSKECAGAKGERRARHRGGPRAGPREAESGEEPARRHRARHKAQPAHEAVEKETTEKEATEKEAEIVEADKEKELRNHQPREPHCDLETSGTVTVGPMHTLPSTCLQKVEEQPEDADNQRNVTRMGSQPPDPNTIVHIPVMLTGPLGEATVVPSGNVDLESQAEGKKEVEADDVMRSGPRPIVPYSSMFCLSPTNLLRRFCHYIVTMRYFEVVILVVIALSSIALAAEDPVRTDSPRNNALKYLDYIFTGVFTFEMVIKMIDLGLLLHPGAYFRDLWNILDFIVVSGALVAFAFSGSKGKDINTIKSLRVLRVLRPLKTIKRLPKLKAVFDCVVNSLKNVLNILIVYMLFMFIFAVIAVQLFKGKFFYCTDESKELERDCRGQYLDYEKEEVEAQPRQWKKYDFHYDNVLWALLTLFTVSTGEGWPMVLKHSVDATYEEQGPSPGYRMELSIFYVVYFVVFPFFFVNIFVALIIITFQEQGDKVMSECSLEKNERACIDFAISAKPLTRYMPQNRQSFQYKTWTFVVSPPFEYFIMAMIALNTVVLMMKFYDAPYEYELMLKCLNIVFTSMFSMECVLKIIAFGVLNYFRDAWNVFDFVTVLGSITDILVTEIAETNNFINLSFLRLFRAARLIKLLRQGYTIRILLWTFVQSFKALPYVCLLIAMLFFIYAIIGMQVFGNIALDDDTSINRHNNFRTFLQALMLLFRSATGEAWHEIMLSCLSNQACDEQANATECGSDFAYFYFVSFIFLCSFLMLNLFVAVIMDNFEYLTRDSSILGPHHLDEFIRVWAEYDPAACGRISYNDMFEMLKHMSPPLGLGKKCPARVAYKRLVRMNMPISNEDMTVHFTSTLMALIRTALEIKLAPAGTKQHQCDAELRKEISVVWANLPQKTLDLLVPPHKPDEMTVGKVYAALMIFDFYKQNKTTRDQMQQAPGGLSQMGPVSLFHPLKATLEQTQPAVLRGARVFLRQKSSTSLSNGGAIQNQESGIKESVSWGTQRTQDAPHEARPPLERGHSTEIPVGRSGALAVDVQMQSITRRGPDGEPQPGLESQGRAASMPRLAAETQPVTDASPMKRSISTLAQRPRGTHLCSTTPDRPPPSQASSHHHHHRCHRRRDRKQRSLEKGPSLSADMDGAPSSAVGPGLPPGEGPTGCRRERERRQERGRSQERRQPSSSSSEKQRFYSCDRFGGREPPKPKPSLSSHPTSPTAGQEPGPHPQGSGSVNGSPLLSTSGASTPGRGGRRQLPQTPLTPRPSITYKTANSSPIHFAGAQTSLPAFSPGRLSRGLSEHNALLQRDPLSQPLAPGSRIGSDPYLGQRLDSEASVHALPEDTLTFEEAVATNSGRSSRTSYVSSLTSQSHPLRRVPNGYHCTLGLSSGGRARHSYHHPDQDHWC
Sequence of UniProt Q00975 (P54286 whole entry, chain 2 of 2, further chain): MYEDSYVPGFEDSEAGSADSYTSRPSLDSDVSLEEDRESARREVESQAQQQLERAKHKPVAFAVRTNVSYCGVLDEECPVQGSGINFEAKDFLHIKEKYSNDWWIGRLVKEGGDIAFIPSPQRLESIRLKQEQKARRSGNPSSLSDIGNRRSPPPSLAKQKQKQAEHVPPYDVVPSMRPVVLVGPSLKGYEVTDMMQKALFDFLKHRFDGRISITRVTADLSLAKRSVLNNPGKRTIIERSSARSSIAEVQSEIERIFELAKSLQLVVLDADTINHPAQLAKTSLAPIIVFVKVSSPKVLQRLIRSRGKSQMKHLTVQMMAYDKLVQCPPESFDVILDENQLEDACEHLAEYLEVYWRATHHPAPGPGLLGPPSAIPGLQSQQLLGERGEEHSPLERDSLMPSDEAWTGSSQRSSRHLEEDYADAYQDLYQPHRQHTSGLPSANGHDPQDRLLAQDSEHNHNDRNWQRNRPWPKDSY

For the substance “rabbit skeletal muscle α2δ-1 subunit expressed from cRNA in Xenopus oocytes (from UniProt P13806 27-1106)”, in assay [1], the current remaining at the end of a 50 ms test pulse to +20 mV, percent of peak current (inactivation) (% of peak current) came out at 33; the fold increase of N-type current magnitude is 9 fold; the peak barium current (N-type), two-electrode voltage clamp in Xenopus oocytes came out at 9.1 µA.

As for “α2δ-2 subunit expressed from cRNA in Xenopus oocytes (from UniProt Q9NY47 19-1150)”, in assay [1], the current remaining at the end of a 50 ms test pulse to +20 mV, percent of peak current (inactivation) (% of peak current) was 59 and the peak barium current (N-type), two-electrode voltage clamp in Xenopus oocytes was determined as 7.6 µA. The T-type current amplitude, α1G/α2δ-2 against α1G alone, Xenopus oocytes in assay [2] was found to be 176%. Also, the L-type peak current amplitude at +30 mV, α1C/α2δ-2 against α1C alone, Xenopus oocytes in assay [3] was found to be 201%.
